Laboratory results reported in US20020142982A1 (published 2002).

Target: T1, beta-catenin (endogenous, HUVEC) (human (HUVEC), UniProt P35222 2-781)
T1 construct: also called β-catenin
T1 sequence (looked up): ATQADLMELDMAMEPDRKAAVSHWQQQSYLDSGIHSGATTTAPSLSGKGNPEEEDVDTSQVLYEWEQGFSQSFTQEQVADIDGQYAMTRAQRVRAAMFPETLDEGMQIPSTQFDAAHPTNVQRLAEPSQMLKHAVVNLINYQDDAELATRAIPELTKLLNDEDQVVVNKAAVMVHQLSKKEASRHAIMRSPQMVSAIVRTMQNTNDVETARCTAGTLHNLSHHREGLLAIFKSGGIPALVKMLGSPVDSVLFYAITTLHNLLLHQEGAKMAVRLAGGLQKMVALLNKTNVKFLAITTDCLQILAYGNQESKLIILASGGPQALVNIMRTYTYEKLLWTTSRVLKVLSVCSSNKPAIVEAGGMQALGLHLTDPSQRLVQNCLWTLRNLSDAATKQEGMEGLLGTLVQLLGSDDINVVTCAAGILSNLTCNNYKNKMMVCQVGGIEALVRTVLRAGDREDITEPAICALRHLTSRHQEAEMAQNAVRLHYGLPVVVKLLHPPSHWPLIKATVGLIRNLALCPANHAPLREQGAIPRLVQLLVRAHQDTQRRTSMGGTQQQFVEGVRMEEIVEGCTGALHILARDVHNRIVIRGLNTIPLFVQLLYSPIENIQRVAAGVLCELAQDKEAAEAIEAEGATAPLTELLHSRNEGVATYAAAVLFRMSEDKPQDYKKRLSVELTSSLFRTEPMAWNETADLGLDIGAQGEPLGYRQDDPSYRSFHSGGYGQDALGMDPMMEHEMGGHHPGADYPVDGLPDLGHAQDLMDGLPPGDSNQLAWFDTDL
Experiment: co-immunoprecipitation of 35S-labelled, DSP cross-linked detergent-insoluble HUVEC extracts
Method: HUVEC were labeled to steady state with ^35Smethionine (250 μCi/mL, NEN DuPont) for 24 hours. After stimulation with 500 nM SPP for 1 hour, cells were fractionated with 0.5% TX-100. After centrifugation (15,000 g, 15 minutes), the protein complexes in detergent-insoluble fractions were cross-linked with 0.5 mM Dithiobis[succinimidyl propionate] (DSP; Pierce Chemical Co., Rockford, Ill.) (Hinck, L., J. Cell Biol. 125: 1327-1340 (1994)), and extracted with 1% TX-100-1% SDS as described above. Cell extracts were then immunoprecipitated with antibodies to VE cadherin, β-catenin, γ-catenin, or p120 Src (p120^cas, Transduction Laboratories). The immunoprecipitated complexes were then reduced by incubating in sample buffer containing 2% β-mercaptoethanol at 95° C. for 10 minutes, 10 μL dithiothreitol (1 M) was added to each gel lanes before protein separation by SDS-PAGE.

binding result: no binding
B1: gamma-catenin (endogenous, HUVEC) (other, human (HUVEC), UniProt P14923 1-745, looked up)
chain: MEVMNLMEQPIKVTEWQQTYTYDSGIHSGANTCVPSVSSKGIMEEDEACGRQYTLKKTTTYTQGVPPSQGDLEYQMSTTARAKRVREAMCPGVSGEDSSLLLATQVEGQATNLQRLAEPSQLLKSAIVHLINYQDDAELATRALPELTKLLNDEDPVVVTKAAMIVNQLSKKEASRRALMGSPQLVAAVVRTMQNTSDLDTARCTTSILHNLSHHREGLLAIFKSGGIPALVRMLSSPVESVLFYAITTLHNLLLYQEGAKMAVRLADGLQKMVPLLNKNNPKFLAITTDCLQLLAYGNQESKLIILANGGPQALVQIMRNYSYEKLLWTTSRVLKVLSVCPSNKPAIVEAGGMQALGKHLTSNSPRLVQNCLWTLRNLSDVATKQEGLESVLKILVNQLSVDDVNVLTCATGTLSNLTCNNSKNKTLVTQNSGVEALIHAILRAGDKDDITEPAVCALRHLTSRHPEAEMAQNSVRLNYGIPAIVKLLNQPNQWPLVKATIGLIRNLALCPANHAPLQEAAVIPRLVQLLVKAHQDAQRHVAAGTQQPYTDGVRMEEIVEGCTGALHILARDPMNRMEIFRLNTIPLFVQLLYSSVENIQRVAAGVLCELAQDKEAADAIDAEGASAPLMELLHSRNEGTATYAAAVLFRISEDKNPDYRKRVSVELTNSLFKHDPAAWEAAQSMIPINEPYGDDMDATYRPMYSSDVPLDPLEMHMDMDGDYPIDTYSDGLRPPYPTADHMLA
notes: also called γ-catenin
